Laboratory results taken from patent publication CN114349855A (BAISIS MEDICAL DIAGNOSIS SCIENCE AND TECH BEIJING LIMITED …, dated 2022).

Experiments:
Assay in all cases: ELISA, S protein coated at 2 μg/mL
新型冠状病毒Beta Spike蛋白 = molecular target: T1, 新型冠状病毒Beta Spike蛋白 (新型冠状病毒 (SARS-CoV-2) Beta突变株, UniProt P0DTC2 16-1213)
T1 construct: also called Beta的S蛋白

新型冠状病毒Gamma Spike蛋白 = molecular target: T2, 新型冠状病毒Gamma Spike蛋白 (新型冠状病毒 (SARS-CoV-2) Gamma突变株, UniProt P0DTC2 16-1213)
T2 construct: also called Gamma的S蛋白

新型冠状病毒Alpha Spike蛋白 = molecular target: T3, 新型冠状病毒Alpha Spike蛋白 (新型冠状病毒 (SARS-CoV-2) Alpha突变株, UniProt P0DTC2 16-1213)
T3 construct: also called Alpha的S蛋白

Measured: binding result

B1: 抗体 克隆号9A5D9 22G3 (antibody, V domains shown)
VH: EVQLVESGGGLVKPGGSLRLSCAASGFTFSSYSMNWVRQAPGKGLEWVSSISRSSSYIYYADSVMGRFTISRDNAKNSLYLQMNSLRADDTAVYYCARDRGSGNYYVDGLDIWGQGTMVTVSS
VL: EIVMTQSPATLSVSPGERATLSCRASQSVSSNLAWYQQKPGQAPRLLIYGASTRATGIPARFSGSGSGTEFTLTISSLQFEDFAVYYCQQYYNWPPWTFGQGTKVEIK
no binding (tested: 1 μg/mL): all assays above

B2: 抗体 克隆号9A5F6 23F1 (antibody, V domains shown)
VH: QVQLVESGGGVVQPGRSLRLSCAASGFTFSSYAMYWVRQAPGKGLECVAGISYDGSNKYYADSVKGRFTISRENSKNTLYLQMNSLISEDTAVYYCARAEWDYWGQGTLVTVSS
VL: SYELTQPSSVSVSPGQTARITCSGDVLAKKYARWFQQKPGQAPVLVIYKDSERPSGIPERFSGSSSGTTVTLTISGAQVEDEADYYCYSAADNNLGVFGGGTKL
no binding (tested: 1 μg/mL): all assays above

B3: 抗体 克隆号7D7G3D4 (antibody, V domains shown)
VH: EVQLVESGGGLVQPGGSLRLSCAASGLTVSSNHMSWVRQAPGKGLEWVSIIYSGGSTYYADSVKGRFTISRDNSKNTLYLQMDSLRAEDTTVYYCARAQGGWELPGAGYYYFNGMDFWGQGTTVTVSS
VL: DIQMTQSPSSLSASVGDRVTITCRASQSISTYLNWYQQKPGKAPKLLIYAASNLQSGVPSRFSGSASGTDFTLTISSLQPEDFATYFCQQSYSTSFTFGPGTKVDIK
no binding (tested: 1 μg/mL): all assays above
